The series can be described thus: observed amide hydrogen exchange rate constant kobs (stretched exponential fit, FD-normalized) (s^-1); higher = faster H/D exchange (less protection). The settings on record: pH 3 (pH read); temperature: 20 °C; D2O: 88%. The essentials:
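Jurkat tryptic peptides (LysC/trypsin, carbamidomethylated cysteines) were labeled in 88% D2O, pHread 3, 20 °C, quenched with 0.23% formic acid at 13 times from 18 to 93,600 s, in processing triplicates. MS1 uptake (Q-Exactive HF, HDExaminer, no back-exchange correction) was normalized to full-deuteration controls (24 h, 37 °C). Curves were fitted to a stretched single exponential with β = 0.8. The observed exchange rate constant kobs is the fitted rate.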
Take VNFAMNVGK: the “observed amide hydrogen exchange rate constant kobs” value worked out at 0.000903. In the case of VAPEEHPVLLTEAPLNPK, the “observed amide hydrogen exchange rate constant kobs” value is 0.00104. In the case of GYDVIAQAQSGTGK, the “observed amide hydrogen exchange rate constant kobs” value turned out to be 0.00126. Take ILQDGGLQVVEK: the “observed amide hydrogen exchange rate constant kobs” value is 0.000978. In the case of QITVNDLPVGR, the “observed amide hydrogen exchange rate constant kobs” value worked out at 0.000932.

For the substance EAMEDGEIDGNK, the “observed amide hydrogen exchange rate constant kobs” value was determined as 0.0032.

HQPTAIIAK: the “observed amide hydrogen exchange rate constant kobs” value turned out to be 0.00045. The figure for SPYQEFTDHLVK is 0.00116; for SIYYITGESK it is 0.00108. As to YAFVNWINK, the “observed amide hydrogen exchange rate constant kobs” value is 0.00131. With LLEPVLLLGK, the “observed amide hydrogen exchange rate constant kobs” value came to 0.000574.

Consider AGLQFPVGR, for which the “observed amide hydrogen exchange rate constant kobs” value worked out at 0.00107. Turning to GFSTWLK, the “observed amide hydrogen exchange rate constant kobs” value was 0.000875. SFYPEEVSSMVLTK: the “observed amide hydrogen exchange rate constant kobs” value was determined as 0.000867. HFVALSTNTTK: the “observed amide hydrogen exchange rate constant kobs” value is 0.00117. As to GAEAANVTGPGGVPVQGSK, the “observed amide hydrogen exchange rate constant kobs” value was determined as 0.00103.

With DEILPTTPISEQK, the “observed amide hydrogen exchange rate constant kobs” value is 0.000626. On to LLEVEHPAAK, for which the “observed amide hydrogen exchange rate constant kobs” value worked out at 0.00188. Consider TLTIVDTGIGMTK, for which the “observed amide hydrogen exchange rate constant kobs” value stood at 0.000986. Regarding IEDGNNFGVAVQEK, the “observed amide hydrogen exchange rate constant kobs” value was determined as 0.00127. Turning to FHVEEEGK, the “observed amide hydrogen exchange rate constant kobs” value was 0.00347.

In the case of GEATVSFDDPPSAK, the “observed amide hydrogen exchange rate constant kobs” value was found to be 0.00157. For the substance EDLHDMLASLGK, the “observed amide hydrogen exchange rate constant kobs” value was found to be 0.00199. Take NIGVDNPAAK: the “observed amide hydrogen exchange rate constant kobs” value amounted to 0.0014. To YHTSQSGDEMTSLSEYVSR belongs 0.00202; to IWHHTFYNELR, 0.00224; to GSYGDLGGPIITTQVTIPK, 0.000771. On to VDNDENEHQLSLR, for which the “observed amide hydrogen exchange rate constant kobs” value turned out to be 0.00288. Turning to NIIHGSDSVESAEK, the “observed amide hydrogen exchange rate constant kobs” value was 0.00215. Consider DQVANSAFVER, for which the “observed amide hydrogen exchange rate constant kobs” value was 0.00108. As to DYFLFR, the “observed amide hydrogen exchange rate constant kobs” value came out at 0.00105. To GDEELDSLIK belongs 0.000999.
